Test results from publication PMC7048817, “Structure of the processive human Pol δ holoenzyme” (Nature Communications, 2020).

T1: p125, catalytic subunit of human Pol δ (human, UniProt P28340 1-1107)
T1 construct: DNA polymerase delta catalytic subunit p125, human; Stood in the assay as a subunit of the Pol δ heterotetramer; source: Sf9 insect cells, coexpressed with p50, p66 and p12 (MultiBac baculovirus), purified as the heterotetramer
T1 sequence: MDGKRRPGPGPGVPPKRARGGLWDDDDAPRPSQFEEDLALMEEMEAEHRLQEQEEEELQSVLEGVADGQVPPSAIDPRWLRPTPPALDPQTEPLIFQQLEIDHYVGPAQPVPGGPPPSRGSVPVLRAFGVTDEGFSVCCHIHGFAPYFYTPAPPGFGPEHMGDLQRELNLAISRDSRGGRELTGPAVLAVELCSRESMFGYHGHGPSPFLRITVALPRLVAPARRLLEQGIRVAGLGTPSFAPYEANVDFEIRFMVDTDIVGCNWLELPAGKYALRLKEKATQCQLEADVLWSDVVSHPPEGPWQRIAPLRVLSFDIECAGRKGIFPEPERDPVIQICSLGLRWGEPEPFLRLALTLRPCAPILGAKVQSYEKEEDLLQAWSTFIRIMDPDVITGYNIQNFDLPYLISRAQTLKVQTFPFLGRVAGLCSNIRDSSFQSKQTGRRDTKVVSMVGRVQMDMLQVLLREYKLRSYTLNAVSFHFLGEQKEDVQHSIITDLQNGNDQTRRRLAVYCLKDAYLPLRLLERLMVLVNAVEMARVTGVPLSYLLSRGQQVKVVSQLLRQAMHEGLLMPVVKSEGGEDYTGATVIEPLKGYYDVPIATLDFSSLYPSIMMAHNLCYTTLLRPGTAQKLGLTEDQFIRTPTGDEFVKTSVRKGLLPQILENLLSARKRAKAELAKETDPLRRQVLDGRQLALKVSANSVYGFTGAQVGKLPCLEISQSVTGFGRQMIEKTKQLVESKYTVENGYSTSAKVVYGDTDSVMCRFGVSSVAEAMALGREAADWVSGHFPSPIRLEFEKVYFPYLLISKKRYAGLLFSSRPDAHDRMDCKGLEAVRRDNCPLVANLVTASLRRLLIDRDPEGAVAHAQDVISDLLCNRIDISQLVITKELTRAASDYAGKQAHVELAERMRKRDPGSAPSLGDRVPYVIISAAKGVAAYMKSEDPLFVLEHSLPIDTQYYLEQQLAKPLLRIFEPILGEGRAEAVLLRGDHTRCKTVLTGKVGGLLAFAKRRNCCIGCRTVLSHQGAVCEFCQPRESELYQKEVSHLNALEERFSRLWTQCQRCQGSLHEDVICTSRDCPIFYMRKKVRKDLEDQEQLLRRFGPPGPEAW


Tests used:
[1] = target: the molecule itself; test: SEC; HiLoad 16/600 Superdex 200 pg in PCNA storage buffer; 2 mg of each PCNA form in 250 μL, 1 mL/min; markers carbonic anhydrase (27 kDa) and conalbumin (75 kDa); monomers to trimer
[2] = target: T2, p50, regulatory subunit of human Pol δ (human, UniProt P49005 1-469); test: cryo-EM structure; Pol δ–DNA–PCNA–dTTP complex with 25/38 primer/template DNA (3' dideoxy terminator); 25 mM HEPES-KOH pH 7.5, 100 mM potassium acetate, 10 mM calcium chloride, 0.02% NP-40, 0.4 mM biotin, 1 mM DTT; 4.1 Å map from the sample frozen after mixing (conformers at 4.3, 4.9, 8.1 Å), 3.0 Å map from the gel-filtered sample in which FEN1 is invisible; conditions: both partners purified
T2 construct: DNA polymerase delta subunit p50 (B-subunit), human; Stood in the assay as a subunit of the Pol δ heterotetramer; also called B-subunit; source: Sf9 insect cells, coexpressed with p125, p66 and p12 (MultiBac baculovirus), purified as the heterotetramer

[3] = target: T1, p125, catalytic subunit of human Pol δ; test: as above; conditions: both partners purified

T2 sequence (P49005 whole entry, stated change not applied): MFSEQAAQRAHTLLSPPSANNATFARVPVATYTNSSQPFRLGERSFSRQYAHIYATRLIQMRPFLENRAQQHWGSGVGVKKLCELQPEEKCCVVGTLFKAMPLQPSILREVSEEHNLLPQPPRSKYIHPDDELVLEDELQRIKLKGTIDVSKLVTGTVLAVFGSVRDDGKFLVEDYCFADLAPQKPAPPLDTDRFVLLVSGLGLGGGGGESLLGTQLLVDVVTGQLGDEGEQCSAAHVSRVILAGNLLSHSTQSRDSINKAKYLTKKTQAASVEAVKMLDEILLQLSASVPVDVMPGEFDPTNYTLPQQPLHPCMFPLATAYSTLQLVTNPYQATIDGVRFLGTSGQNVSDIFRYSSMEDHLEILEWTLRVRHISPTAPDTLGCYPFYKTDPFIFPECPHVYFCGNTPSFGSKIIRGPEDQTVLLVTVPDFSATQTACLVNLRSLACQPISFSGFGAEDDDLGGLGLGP

Row | Binder | stoichiometry N [1] | binding result [2] | binding result [3]
1 | DLDV-PCNA (PCNA D120A, L121A, D122A, V123E) (natural protein, human, UniProt P12004 1-261, looked up, proliferating cell nuclear antigen, human, full length, with D120A, L121A, D122A and V123E; source: E. coli BL21 (DE3), purified (HisTrap, HiTrap Q, Superdex 200)) MFEARLVQGSILKKVLEALKDLINEACWDISSSGVNLQSMDSSHVSLVQLTLRSEGFDTYRCDRNLAMGVNLTSMSKILKCAGNEDIITLRAEDNADTLALVFEAPNQEKVSDYEMKLMAAAEEQLGIPEQEYSCVVKMPSGEFARICRDLSHIGDAVVISCAKDGVKFSASGELGNGNIKLSQTSNVDKEEEAVTIEMNEPVQLTFALRYLNFFTKATPLSSTVTLSMSADVPLVVEYKIADMGHLKYYLAPKIEDEEGS | 3 |  | 
2 | p66, regulatory subunit of human Pol δ (natural protein, DNA polymerase delta subunit p66, human; last visible residue in the map is Ala144; Stood in the assay as a subunit of the Pol δ heterotetramer; also called p66N (its visible N-terminal part); source: Sf9 insect cells, coexpressed with p125, p50 and p12 (MultiBac baculovirus), purified as the heterotetramer) ADQLYLENIDEFVTDQNKIVTYKWLSYTLGVHVNQAKQMLYDYVERKRKENSGAQLHVTYLVSGSLIQNGHSCHKVAVVREDKLEAVKSKLAVTASIHVYSIQKAMLKDSGPLFNTDYDILKSNLQNCSKFSAIQCAAAVPRAPAESSSSSKKFEQSHLHMSSETQANNELTTNGHGPPASKQVSQQPKGIMGMFASKAAAKTQETNKETKTEAKEVTNASAAGNKAPGKGNMMSNFFGKAAMNKFKVNLDSEQAVKEEKIVEQPTVSVTEPKLATPAGLKKSSKKAEPVKVLQKEKKRGKRVALSDDETKETENMRKKRRRIKLPESDSSEDEVFPDSPGAYEAESPSPPPPPSPPLEPVPKTEPEPPSVKSSSGENKRKRKRVLKSKTYLDGEGCIVTEKVYESESCTDSEEELNMKTSSVHRPPAMTVKKEPREERKGPKKGTAALGKANRQVSITGFFQRK |  | binds | 
3 | p12, regulatory subunit of human Pol δ (natural protein, Stood in the assay as a subunit of the Pol δ heterotetramer; source: Sf9 insect cells, coexpressed with p125, p50 and p66 (MultiBac baculovirus), purified as the heterotetramer) GRKRLITDSYPVVKRREGPAGHSKGELAPELGEEPQPRDEEEAELELLRQFDLAWQYGPCTGITRLQRWCRAKQMGLEPPPEVWQVLKTHPGDPRFQCSLWHLYPL |  | binds | binds
